According to patent US20170088628A1, “Compositions and Methods for Identifying B Cell Malignancies Responsive to B Cell Depleting Therapy” (MedImmune, LLC, priority 2014, published 2017):

Columns and labels:
[1] = test system: Chronic lymphocytic leukemia; assay: CP-1019, Chronic lymphocytic leukemia patients treated with MEDI-551 or Rituximab+Bendamustine; type: in vivo, human; settings: of 22 MEDI-551-treated / 12 Rituximab-treated patients
Experimental: miR-629 expression levels were measured in baseline peripheral blood mononucleated cell (PBMC) samples from Chronic lymphocytic leukemia patients treated with MEDI-551 or Rituximab+Bendamustine (CP-1019). • 22 MEDI-551-treated patients (10 CR/PR; 3 PD; 4 SD) • 12 Rituximab-treated patients (6 CR/PR; 2 PD; 2 SD)

Karpas-422 = assay: in vitro Antibody-dependent cellular cytotoxicity (ADCC) assay; type: cell-based, human; settings: Karpas-422, in vitro ADCC
Oci-Ly-19 = assay: in vitro ADCC assay; type: cell-based, human; settings: Oci-Ly-19, in vitro ADCC
SUD-HL-6 = assay: in vitro ADCC assay; type: cell-based, human; settings: SUD-HL-6, in vitro ADCC
Toledo cell lines = assay: in vitro ADCC assay; type: cell-based, human
[2] = test system: DB (diffuse large cell lymphoma); assay: in vitro ADCC assay; type: cell-based, human
ARH-77 = assay: in vitro ADCC assay; type: cell-based, human; settings: ARH-77, in vitro ADCC
RL = assay: in vitro ADCC assay; type: cell-based, human
[3] = test system: diffuse large B-cell lymphoma cell lines; assay: in vitro ADCC assays, high versus low sensitivity cell lines; type: cell-based, human; settings: in other cases 1000-fold or more
Text: The following microRNAs had significant differences: miR-629; miR-99b; miR-let-7e; miR-15a; and miR-29a.

[4] = test system: Karpas 422 cells expressing miR-629; assay: in vitro ADCC in miR-629 over-expressing cells; type: cell-based, human; settings: miR-629 over-expression vs vector control
Experimental: FIGS. 12A and 12B are graphs. […] LDH release has been a known prognostic factor in lymphoma for many years and is measured routinely in clinical practice. […] Therefore, it is likely that miR-629 expression levels are related to the aggressiveness of the tumor. This could, in part, explain the correlation between miR-629 and response to MEDI-551.
The diffuse large B-cell lymphoma cell line Karpas-422 was transduced with a lentiviral vector over-expressing miR-629 or a scrambled miRNA control (Open Biosystems, Huntsville, Ala.) at an MOI of 2-20. Transduced cells were expanded for 1-2 weeks. Utilizing RFP, cells were sorted by fluorescence-activated cell sorting (FACS) into high miR-629 and low miR-629 populations. Clones were also generated using the limiting dilution method. Over-expression of miR-629 was evaluated by TaqMan QPCR.

Daudi = assay: ADCC assay after miR-629 over-expression; type: cell-based, human; settings: miR-629 over-expressed (miR-629 mimic)
Experimental: (§1) FIGS. 14A-D are graphs showing the results of an antibody dependent cytotoxicity (ADCC) assay. miR-629 was overexpressed in the specified cell type, and the cells were then treated with an anti-CD19 antibody (MEDI551).
(§2) The effect of altering miR-629 on sensitivity to treatment with an anti-CD19 antibody (MEDI551) was explored. Human leukemia and lymphoma cell lines Daudi, Toledo, and RL were obtained from American Type Culture Collection (ATCC); Karpas 1106P, Karpas 422, OCI-Ly-19, MEC2 were obtained from Deutsche Sammlung von Mikroorganismen und Zellkulturen (DSMZ, Germany). Cell lines were transfected with […] of a miR-629 mimic (Karpas 1106P, Karpas 422, Daudi, MEC2, OCI-Ly-19, SU-DHL-6, and Toledo), a miR-629 hairpin inhibitor (RL and ARH-77), or respective negative control oligonucleotides (all from Dharmacon) using PrimeFect (Lonza) for 24 hours. CD19 and CD20 surface expression was determined by flow cytometry (LSRII, BD Biosciences) using their respective fluorescently labeled monoclonal antibodies. Surface expression is reported as mean fluorescent intensity (MFI) and was averaged for untransfected as well as miR-629 and negative control transfected cells.

MEC-2 = assay: ADCC assay after miR-629 over-expression; type: cell-based, human; settings: MEC-2, miR-629 over-expressed (miR-629 mimic)
Experimental: as §1, §2

SU-DHL-6 = assay: ADCC assay after miR-629 over-expression; type: cell-based, human; settings: SU-DHL-6, miR-629 over-expressed (miR-629 mimic)
Experimental: as §1, §2

Toledo = assay: ADCC assay after miR-629 over-expression; type: cell-based, human; settings: miR-629 over-expressed (miR-629 mimic)
Experimental: as §1, §2

[5] = test system: Relapsed or Refractory Advanced B-Cell Malignancies; assay: Clinical Trial No. CP204, Phase 1 dose-escalation study of MEDI-551 as a single agent; type: in vivo, human
Experimental: miR-629 expression levels were measured in baseline whole blood samples from diffuse large B cell lymphoma (DLBCL), follicular lymphoma (FL), and Chronic lymphocytic leukemia (CLL) patients treated with an anti-CD19 antibody treatment as a single agent in Clinical Trial No. CP204, A Phase 1, Dose-escalation Study of MEDI-551, a Humanized Monoclonal Antibody Directed Against CD19, in Adult Subjects With Relapsed or Refractory Advanced B-Cell Malignancies.

FccRIIIA = FccRIIIA (Homo sapiens, UniProt P08637); settings: afucosylated mAb relative to mAb anti-CD19-2; cited from earlier work
Chain of FccRIIIA (P08637 17-254): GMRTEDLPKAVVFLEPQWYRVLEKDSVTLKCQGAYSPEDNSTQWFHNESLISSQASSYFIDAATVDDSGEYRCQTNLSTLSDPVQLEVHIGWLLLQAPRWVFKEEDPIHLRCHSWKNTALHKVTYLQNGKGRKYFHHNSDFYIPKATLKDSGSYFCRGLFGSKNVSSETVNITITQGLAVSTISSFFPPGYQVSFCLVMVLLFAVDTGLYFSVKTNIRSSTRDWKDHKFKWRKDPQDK

[6] = afucosylated mAb relative to mAb anti-CD19-2; cited from earlier work

With “Rituximab: anti-CD20 antibody therapy used as comparator [reference compound]” the “CR/PR, number of patients” value [1] was 6 and the “PD, number of patients” value [1] was 2.

B1: MEDI-551: afucosylated form of the CD19 mAb anti-CD19-2, developed by humanization and affinity optimization of the HB12b mAb (antibody, chains of the INN, looked up, V domains shown)
VH: EVQLVESGGGLVQPGGSLRLSCAASGFTFSSSWMNWVRQAPGKGLEWVGRIYPGDGDTNYNVKFKGRFTISRDDSKNSLYLQMNSLKTEDTAVYYCARSGFITTVRDFDYWGQGTLVTVSS
VL: EIVLTQSPDFQSVTPKEKVTITCRASESVDTFGISFMNWFQQKPDQSPKLLIHEASNQGSGVPSRFSGSGSGTDFTLTINSLEAEDAATYYCQQSKEVPFTFGGGTKVEIK
modifications: afucosylated
In the case of B1, the “sensitivity to anti-CD19 antibody treatment” value (Karpas-422) is reported as “highly sensitive”, the “sensitivity to anti-CD19 antibody treatment” value (Karpas-422; listed as anti-CD19 antibody) is reported as “high sensitivity” and the “sensitivity to anti-CD19 antibody treatment” value (Oci-Ly-19) is reported as “high sensitivity”. The “sensitivity to anti-CD19 antibody treatment” value (SUD-HL-6) was “high sensitivity”, the “sensitivity to anti-CD19 antibody treatment” value (Toledo cell lines) was “high sensitivity” and the “sensitivity to anti-CD19 antibody treatment” value [2] was “low sensitivity”. For the same molecule, the “sensitivity to anti-CD19 antibody treatment” value (ARH-77) was “low sensitivity”, the “sensitivity to anti-CD19 antibody treatment” value (RL) was “low sensitivity” and the “EC50s for the high sensitivity cell lines lower than the low sensitivity cell lines” value [3] was “at least 100 fold”. For the same molecule, the “shift in Ec50 for anti-CD19 antibody treatment in in vitro ADCC” value [4] was “slight shift”, the “reduced sensitivity to anti-CD19 antibody” value (Daudi) was 15-25% and the “reduced sensitivity to anti-CD19 antibody” value (MEC-2) was 15-25%. The difference in cytotoxicity (SU-DHL-6) was 15-20%, the difference in cytotoxicity (Toledo) was 15-20% and the “CR/PR (complete or partial response), number of patients” value (from here on “CR/PR (complete or partial response)”) ([5]; Chronic lymphocytic leukemia) was 3. For the same molecule, the “PD (progressive disease), number of patients” value (“PD (progressive disease)” for short) ([5]; Chronic lymphocytic leukemia) was 3, the “CR/PR (complete or partial response)” value ([5]; diffuse large B-cell lymphoma) was 5 and the “PD (progressive disease)” value ([5]; diffuse large B-cell lymphoma) was 10. For the same molecule, the “CR/PR (complete or partial response)” value ([5]; follicular lymphoma) was 6, the “PD (progressive disease)” value ([5]; follicular lymphoma) was 2 and the “CR/PR, number of patients” value [1] was 10. The “PD, number of patients” value [1] was 3, the “affinity to FccRIIIA” value (FccRIIIA) was “increased” and the ADCC activity [6] was “enhanced”.
